Experimental data: PMC5669500, “Scaffolding the cup-shaped double membrane in autophagy” (PLoS Computational Biology, 2017)
Numbering of substitutions follows the chain as printed.

Assays:
Assay in all cases: pull-down; 20 μg GST-Atg13 (351–458) immobilised on 30 μL Glutathione Sepharose 4B; Atg17-Atg31-Atg29 complex at 10 μM; 4°C, 1 hour; 20 mM Tris pH 8, 150 mM NaCl, 0.1 mM TCEP; 3 washes; SDS-PAGE
Details in all cases: both partners purified
[1] = target: T1, Atg17-Atg31-Atg29 complex with Atg17 mutant M4 (K164D/K173D/R299D) (Saccharomyces cerevisiae, UniProt Q06410 1-417; Q12421 1-196; Q12092 1-213, K164D | K173D | R299D)
T1 construct: Atg17, Saccharomyces cerevisiae; Atg31, Saccharomyces cerevisiae; Atg29, Saccharomyces cerevisiae; a TEV cleavage site follows the His6 tag; Mutations introduced into the Atg17-Atg31-Atg29 construct by quick-change mutagenesis; source: E. coli BL21 (DE3), co-expressed from pST39, purified (Ni-NTA, Superose 6); copies: 2 + +
T1 sequence (looked up) 1: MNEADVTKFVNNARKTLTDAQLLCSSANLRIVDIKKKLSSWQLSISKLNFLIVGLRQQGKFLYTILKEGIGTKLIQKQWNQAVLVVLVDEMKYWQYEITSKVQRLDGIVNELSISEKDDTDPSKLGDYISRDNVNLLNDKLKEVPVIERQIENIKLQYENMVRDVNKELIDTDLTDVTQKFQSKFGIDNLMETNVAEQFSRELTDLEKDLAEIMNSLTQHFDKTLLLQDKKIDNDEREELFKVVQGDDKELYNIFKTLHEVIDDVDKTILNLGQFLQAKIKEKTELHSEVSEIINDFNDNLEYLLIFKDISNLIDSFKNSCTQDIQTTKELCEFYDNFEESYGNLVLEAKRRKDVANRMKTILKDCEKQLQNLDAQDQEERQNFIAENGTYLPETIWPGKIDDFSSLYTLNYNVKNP
T1 sequence (looked up) 2: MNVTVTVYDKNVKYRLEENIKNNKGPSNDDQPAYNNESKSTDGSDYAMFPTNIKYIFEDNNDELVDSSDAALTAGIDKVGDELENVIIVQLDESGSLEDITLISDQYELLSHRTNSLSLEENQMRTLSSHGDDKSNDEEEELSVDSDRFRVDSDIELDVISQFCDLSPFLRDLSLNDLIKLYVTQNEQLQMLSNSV
T1 sequence (looked up) 3: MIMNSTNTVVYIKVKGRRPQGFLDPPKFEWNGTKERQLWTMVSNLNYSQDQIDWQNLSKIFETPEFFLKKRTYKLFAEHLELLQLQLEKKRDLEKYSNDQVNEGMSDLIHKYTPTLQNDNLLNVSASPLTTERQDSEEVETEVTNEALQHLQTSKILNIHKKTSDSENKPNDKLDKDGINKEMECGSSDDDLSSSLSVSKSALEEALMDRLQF

[2] = target: T2, Atg17-Atg31-Atg29 complex with Atg17 mutant M1 (K318D/Q326D/K329D) (Saccharomyces cerevisiae, UniProt Q06410 1-417; Q12421 1-196; Q12092 1-213, K318D | Q326D | K329D)
T2 construct: Atg17, Saccharomyces cerevisiae; Atg31, Saccharomyces cerevisiae; Atg29, Saccharomyces cerevisiae; a TEV cleavage site follows the His6 tag; Mutations introduced into the Atg17-Atg31-Atg29 construct by quick-change mutagenesis; source: E. coli BL21 (DE3), co-expressed from pST39, purified (Ni-NTA, Superose 6); copies: 2 + +
T2 sequence (looked up) 1: T1 sequence (looked up) 1 with D164K, D173K, D299R, K318D, Q326D, K329D
T2 sequence (looked up) 2: T1 sequence (looked up) 2
T2 sequence (looked up) 3: T1 sequence (looked up) 3

[3] = target: T3, Atg17-Atg31-Atg29 complex with Atg17 mutant M5 (K92D/L141D) (Saccharomyces cerevisiae, UniProt Q06410 1-417; Q12421 1-196; Q12092 1-213, K92D | L141D)
T3 construct: Atg17, Saccharomyces cerevisiae; Atg31, Saccharomyces cerevisiae; Atg29, Saccharomyces cerevisiae; a TEV cleavage site follows the His6 tag; Mutations introduced into the Atg17-Atg31-Atg29 construct by quick-change mutagenesis; source: E. coli BL21 (DE3), co-expressed from pST39, purified (Ni-NTA, Superose 6); copies: 2 + +
T3 sequence (looked up) 1: T1 sequence (looked up) 1 with K92D, L141D, D164K, D173K, D299R
T3 sequence (looked up) 2: T1 sequence (looked up) 2
T3 sequence (looked up) 3: T1 sequence (looked up) 3

binding result [1]: binds
binding result [2]: binds
binding result [3]: binds
B1: GST-Atg13 (351–458) (domain or fragment, Saccharomyces cerevisiae, UniProt Q06628 351-458, looked up)
chain: TRANSFEPQSWQKKVYPISRPVQPFKVGSIGSQSASRNPSNSSFFNQPPVHRPSMSSNYGPQMNIEGTSVGSTSKYSSSFGNIRRHSSVKTTENAEKVSKAVKSPLQP
notes: a TEV cleavage site follows the GST tag; source: recombinant from pGST2 vector, purified (Glutathione Sepharose 4B, HiLoad Superdex 200 16/60); not shown: GST, N-terminal, kept
